Results on 1 substance are retold here after patent US20100093076A1, “SOLUBLE IL-27 RECEPTOR” (priority 2006, published 2010).

Series [1] has as its target T1, human ligand (single-chain IL27: EBI3 linked to IL-27 p28) (Homo sapiens, UniProt Q14213+Q8NEV9).
T1 construct: purchased R&D Systems
T1 sequence (Q14213+Q8NEV9 with tags, fused parts or gaps): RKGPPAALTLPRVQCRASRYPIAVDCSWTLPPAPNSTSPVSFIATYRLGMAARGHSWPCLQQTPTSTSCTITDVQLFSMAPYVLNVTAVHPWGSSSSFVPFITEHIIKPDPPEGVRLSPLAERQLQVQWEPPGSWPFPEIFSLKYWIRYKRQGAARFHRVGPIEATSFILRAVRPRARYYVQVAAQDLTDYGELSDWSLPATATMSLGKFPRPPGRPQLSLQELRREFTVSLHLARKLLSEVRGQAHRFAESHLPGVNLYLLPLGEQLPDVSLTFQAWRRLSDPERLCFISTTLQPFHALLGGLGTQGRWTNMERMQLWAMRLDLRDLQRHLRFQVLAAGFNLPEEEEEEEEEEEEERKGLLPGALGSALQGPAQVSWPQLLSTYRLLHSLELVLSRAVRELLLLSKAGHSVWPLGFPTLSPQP
In words: Surface plasmon resonance (BIACORE 3000) kinetic rate and affinity constants. In kind it is binding. The following applies: SPR. The procedure: (§1) Kinetic rate and affinity constant values for the mouse (IL27RAm(mFc1), Example 1) and human (IL27RA-Fc5, Example 2) soluble receptors were obtained by surface plasmon resonance (SPR) using an automated instrument (BIACORE 3000; Biacore International AB, Uppsala, Sweden). The mouse soluble receptor was tested against mouse ligand (lot A1418F), and the human soluble receptor was tested against both mouse (A1426F) and human (A1534F) ligands. For determination of the kinetic rate constants for the receptor-ligand interactions, the gp130 molecule was not included as part of the receptor complex.
(§2) The IL27 ligands used in this study were single-chain molecules comprising EBI3 connected by its C-terminus to the N-terminus of IL-27 p28 via a polypeptide linker. (R&D Systems) Each of the ligands included an amino-terminal peptide tag.
(§3) For the mouse IL27RA study, the soluble receptor was captured onto the chip surface by an isotype-specific anti-mouse Fc antibody (obtained from Jackson ImmunoResearch Laboratories, Inc., West Grove, Pa.) covalently immobilized to the chip (BIACORE CM5 chip) using the standard amine coupling protocol specified by the instrument manufacturer. For the human IL27RA studies, the soluble receptor was directly and covalently immobilized to the chip via the amine coupling protocol. In all studies, ligand was injected over the active (receptor-bound) surface at varying concentrations to obtain a series of binding curves.
(§4) Experimental conditions were optimized for determination of kinetic rate constant values. The molecular densities of the soluble receptor protein loaded onto the chip surface were targeted to obtain maximum IL27 binding levels (Rmax) of ≦20 RU. The analyte (ligand) was injected over the receptor surface at a flow rate of […] at a concentration range of approximately 0.05 to 10 nM, allowing for an association phase of 3 minutes and a dissociation phase of 10 minutes. The mouse soluble receptor surface was regenerated with two 30-second injections at 50 μL/minute of glycine, pH 2.0. The human soluble receptor surface was similarly regenerated with a single 30-second injection.
(§5) All data were assessed using software provided with the instrument (BIACORE Evaluation software v. 3.2). The binding curves were globally fitted to a 1:1 binding model corrected for mass transport limitation resulting from the fast on-rate values (ka) obtained. Statistical analysis of the fits of the experimental binding curves versus theoretical curves gave standard error values for ka and kd of less than 2%, and chi^2 values of less than 2% of Rmax for all interactions tested, providing reasonable confidence in the kinetic rate constant values obtained.
(In general: SPR reads the build-up and loss of mass on a sensor chip optically.)

Series [2] has as its target T2, mouse ligand (single-chain IL27: EBI3 linked to IL-27 p28) (Mus musculus, UniProt O35228+Q8K3I6).
T2 construct: purchased R&D Systems
T2 sequence (O35228+Q8K3I6 with tags, fused parts or gaps): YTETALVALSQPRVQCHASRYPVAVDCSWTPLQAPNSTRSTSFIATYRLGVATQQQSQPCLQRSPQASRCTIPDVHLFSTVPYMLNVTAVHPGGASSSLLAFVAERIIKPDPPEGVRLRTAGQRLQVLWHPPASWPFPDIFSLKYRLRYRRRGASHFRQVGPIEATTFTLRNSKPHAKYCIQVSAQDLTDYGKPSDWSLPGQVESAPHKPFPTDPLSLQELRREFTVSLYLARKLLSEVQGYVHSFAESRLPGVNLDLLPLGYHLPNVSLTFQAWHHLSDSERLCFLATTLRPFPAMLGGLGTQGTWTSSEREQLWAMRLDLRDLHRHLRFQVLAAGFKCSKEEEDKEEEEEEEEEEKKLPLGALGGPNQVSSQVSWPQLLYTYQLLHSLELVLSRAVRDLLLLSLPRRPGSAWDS
Described as above. In kind it is binding. Particulars: SPR. As for the experimental part: as §1, §2, §3, §4, §5

The nature of series [3]: Pharmacokinetics of soluble receptors in female C57B1/6 mice (serum ELISA, noncompartmental analysis). Particulars: 100 μg; for AUCINF: extrapolated to infinity. The series is classed as in vivo, mouse. The procedure: Studies were performed to evaluate the pharmacokinetics of the mouse (IL-27RAm(mFc1)) and human (IL-27RA-Fc5) soluble receptors in female C57B1/6 mice.
Serum was generated from each sample and analyzed by a qualified enzyme-linked immunosorbant assay (ELISA). The resulting mean serum concentration versus time profiles were then subjected to noncompartmental pharmacokinetic analyses. The following pharmacokinetic parameters were calculated: C0 and Cmax (extrapolated concentration at time zero and maximum serum concentration, respectively), Tmax (time to achieve maximum concentration), t1/2 λz (terminal half-life), AUC0-t (area under the concentration versus time curve from time zero to the last measurable time point), AUCINF (area under the concentration versus time curve extrapolated to infinity), C1 or C1/F (clearance or clearance divided by bioavailable fraction, respectively), VSS or VZ/F (steady state volume of distribution or volume of distribution divided by the bioavailable fraction, respectively), and F (bioavailable fraction).

Broadly, the Kd is a measure of binding affinity in units of concentration. Broadly, the Tmax is the time at which the peak concentration occurs. The term Cmax denotes the maximum level reached in the sampled fluid or tissue. The term Vss denotes a proportionality between amount in the body and measured concentration, not a real space. Lower therefore signals confinement near the circulation. In series [1] (1:1 binding model), “human IL-27RA-Fc5: Extracellular domain of human IL27RA (amino acids 1 to 512 of SEQ ID NO:3) fused to Fc5, effector minus human gamma1 Fc; SEQ ID NO:16” registered a ka of 1e+07 M⁻¹ s⁻¹ and a kd of 0.0019 s⁻¹. The substance further came in with a Kd in series [1] (Kd=kd/ka) of 0.19 nM. For the same substance, in series [2] (1:1 binding model), the ka was found to be 8.1e+06 M⁻¹ s⁻¹ and the kd was determined as 0.0018 s⁻¹. The substance further showed a dissociation constant (Kd) in series [2] (Kd=kd/ka) of 0.22 nM. For the same substance, in series [3] (IP), the AUC0-120 was 1310 µg·h/mL, the Cl/F is recorded as 0.0725 mL/h, the time to peak (Tmax) was found to be 3 h and the “t1/2 λz (terminal half-life)” value amounted to 28.3 h. The AUCINF in series [3] (IP) is 1380 µg·h/mL. In series [3] (IP, mouse serum), the highest concentration (Cmax) was found to be 35200 ng/mL. Also, in series [3] (IV), the AUC0-120 worked out at 1400 µg·h/mL, the Cl is listed as 0.0664 mL/h, the distribution volume (Vss) was determined as 2.54 mL and the “t1/2 λz (terminal half-life)” value is reported as 34.9 h. Besides, the AUCINF in series [3] (IV) is 1510 µg·h/mL. Also, the “Co (extrapolated concentration at time zero)” value in series [3] (IV, mouse serum) is 122 µg/mL. For the same substance, in series [3] (SC), the AUC0-120 worked out at 1130 µg·h/mL, the Cl/F stood at 0.0828 mL/h, the Tmax is given as 6 h and the “t1/2 λz (terminal half-life)” value was determined as 29.3 h. For the same substance, in series [3] (SC), the AUCINF is 1210 µg·h/mL. This substance also registered a Cmax in series [3] (SC, mouse serum) of 21000 ng/mL.
